From publication doi:10.1101/459156

Target: Hexahistidine-tagged ALIX protein (UniProt Q8WUM4)
Experiment: MST

Chain of UniProt Q8WUM4 (Q8WUM4 whole entry): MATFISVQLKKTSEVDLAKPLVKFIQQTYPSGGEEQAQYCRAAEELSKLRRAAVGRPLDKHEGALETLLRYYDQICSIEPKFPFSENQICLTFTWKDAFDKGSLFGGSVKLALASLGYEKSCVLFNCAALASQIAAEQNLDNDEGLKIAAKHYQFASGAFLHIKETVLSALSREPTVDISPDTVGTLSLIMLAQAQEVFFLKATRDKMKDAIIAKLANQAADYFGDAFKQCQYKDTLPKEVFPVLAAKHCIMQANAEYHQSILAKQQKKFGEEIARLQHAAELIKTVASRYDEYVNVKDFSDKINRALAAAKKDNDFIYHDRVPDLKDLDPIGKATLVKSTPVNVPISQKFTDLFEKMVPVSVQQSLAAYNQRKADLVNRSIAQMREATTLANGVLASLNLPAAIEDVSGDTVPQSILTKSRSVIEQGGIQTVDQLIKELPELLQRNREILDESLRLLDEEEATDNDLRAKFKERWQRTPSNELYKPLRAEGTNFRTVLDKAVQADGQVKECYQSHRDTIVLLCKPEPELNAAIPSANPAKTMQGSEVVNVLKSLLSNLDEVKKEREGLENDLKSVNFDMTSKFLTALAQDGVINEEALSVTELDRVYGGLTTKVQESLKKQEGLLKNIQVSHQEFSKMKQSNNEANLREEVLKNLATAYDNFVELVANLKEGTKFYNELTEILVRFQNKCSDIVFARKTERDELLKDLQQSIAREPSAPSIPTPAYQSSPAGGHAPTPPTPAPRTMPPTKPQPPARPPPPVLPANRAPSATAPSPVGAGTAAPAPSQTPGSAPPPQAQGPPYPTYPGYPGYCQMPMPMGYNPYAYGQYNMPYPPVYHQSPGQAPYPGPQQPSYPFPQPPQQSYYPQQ

Substance	Kd [nM]
HIV-1CWT Gag late domain motif peptide	290
HIV-1BWT Gag late domain motif peptide	32
